Paper PMC3215728
One block for each substance: values may come before it.

Legend:
[1] = biological target: CFP-dysferlin / YFP-dysferlin (full-length human dysferlin) expressed in mouse FDB muscle fibers (human) (UniProt O75923); test: FRET or BRET; acceptor-selective photobleaching FRET between CFP-dysferlin and YFP-dysferlin in living FDB muscle fibers isolated from electroporated dysferlin-deficient mice; conditions: remark: other sources report otherwise
[2] = biological target: CFP-dysferlin / YFP-dysferlin (full-length human dysferlin) expressed in HEK293 cells (human) (UniProt O75923); test: fluorescence correlation spectroscopy (FCS); YFP-dysferlin diffusing in detergent solution, Triton X-100; 2-species fit; conditions: remark: other sources report otherwise
[3] = biological target: CFP-dysferlin / YFP-dysferlin (full-length human dysferlin) expressed in HEK293 cells (human) (UniProt O75923); test: FRET or BRET; three-cube fluorescence microscopy (E-FRET), pixel by pixel, CFP-dysferlin and YFP-dysferlin in living HEK293 cells; conditions: remark: other sources report otherwise
[4] = biological target: CFP-dysferlin / YFP-dysferlin (full-length human dysferlin) expressed in HEK293 cells (human) (UniProt O75923); test: photon counting histogram (PCH); detergent solubilized YFP-dysferlin in CHAPS or DDM; molecular brightness normalised to monomeric YFP; conditions: remark: other sources report otherwise
[5] = biological target: CFP-dysferlin / YFP-dysferlin (full-length human dysferlin) expressed in HEK293 cells (human) (UniProt O75923); test: fluorescence correlation spectroscopy (FCS); YFP-dysferlin diffusing in detergent solution, 1% CHAPS or 0.5% DDM; single species diffusion model; conditions: remark: other sources report otherwise
[6] = biological target: CFP-dysferlin / YFP-dysferlin (full-length human dysferlin) expressed in HEK293 cells (human) (UniProt O75923); test: FRET or BRET; acceptor-selective photobleaching FRET between CFP- and YFP-tagged copies in living HEK293 cells; linearity of donor against acceptor for stoichiometry; hyperbolic fit of FRET against YFP intensity gives FRETmax and KD in arbitrary units; conditions: remark: other sources report otherwise
[7] = biological target: Endogenous dysferlin from rabbit skeletal muscle (rabbit (endogenous in skeletal muscle)); test: cross-linking; rabbit skeletal muscle microsomes with or without 100 µM o-PDM on ice for 30 min; SDS-PAGE and western blot
[8] = biological target: His6-tagged dysferlin (human) (UniProt O75923); test: SEC; Superose 6 HR 10/30 FPLC; mobile phase 1% CHAPS, 150 mM NaCl, 50 mM Tris pH 7.5, 0.4 ml/min; fractions blotted with Hamlet antibody; monomer to dimer; conditions: remark: other sources report otherwise

- FRETmax [1]: 33.3%
- stoichiometry N [1]: 2
Substance: CFP-dysferlin / YFP-dysferlin (full-length human dysferlin) expressed in mouse FDB muscle fibers, O75923 1-2080

- percent of molecules diffusing as the slower (dimer) species [2]: 17%
- FRET efficiency [3]: 20.6%
- stoichiometry N [4]: 2
- stoichiometry N [5]: 2
- FRETmax [6]: 26.8%
- stoichiometry N [6]: 2
Substance: CFP-dysferlin / YFP-dysferlin (full-length human dysferlin) expressed in HEK293 cells, O75923 1-2080

- stoichiometry N [7]: 2
Substance: Endogenous dysferlin from rabbit skeletal muscle (natural protein)

- stoichiometry N [8]: 2
Substance: His6-tagged dysferlin, O75923 1-2080
